We go through 12 substances from paper PMC4579573.

In data set [1] the target is K63-linked diUb covalently coupled to AlexaFluor-488 (UniProt P0CG48). Put plainly: fluorescence polarisation; complex titrated against 10 nM AlexaFluor-488 K63-linked diUb tracer. For orientation: Fluorescence polarisation rises when a labelled molecule tumbles more slowly, as on binding a larger partner.
Data set [2] concerns the target CfBRCC36–KIAA0157–BRCC45 triple complex (C. floridanus) (UniProt E2AXC7). Put plainly: SEC-MALS; complexes and subcomplexes purified from insect cells; size exclusion chromatography coupled to multi-angle light scattering (Figures S1B-E and S8E-G). In general terms: SEC sorts molecules by how far they enter the pores of the column.
Experiment in data set [3]: as above
Data set [4] has as its target CfBRCC36(Ala205Asp + Ile212Asp)–KIAA0157ΔC heterodimer (C. floridanus). Described as above.
In data set [5] the target is Cf BRCC36–KIAA0157 binary complex (C. floridanus) (UniProt E2AXC7). The description is as above.
Data set [6] has as its target CfBRCC36(Ala205Asp)–KIAA0157ΔC heterodimer (C. floridanus).
For data set [7], the target named is H. Sapiens ARISC (BRCC36–Abraxas–BRCC45–MERIT40) complex (H. sapiens) (UniProt P46736). Put plainly: SEC-MALS; complexes and subcomplexes purified from insect cells; size exclusion chromatography coupled to multi-angle light scattering (Figures S1B-E and S8E-G).
Data set [8] concerns the target CfBRCC36(Ile212Asp)–KIAA0157ΔC heterodimer (C. floridanus).
Data set [9] concerns the target CfBRCC36–KIAA0157ΔC heterodimer (C. floridanus). The data set is described as follows: SEC-MALS; complexes and subcomplexes purified from insect cells; size exclusion chromatography coupled to multi-angle light scattering (Figures S1B-E and S8E-G).
Data set [10] concerns the target unlabeled K63 linked diUb (UniProt P0CG48).

As to “BRCC36 (E30A+A205D+I212D)-KIAA0157ΔC complex (from UniProt E2AXC7 1-253)”, the Kd (usually the free concentration of one partner at which half of the binding sites on the other are occupied at equilibrium, for simple one-to-one binding) in data set [1] was 2.2 µM.

Consider “CfBRCC36–KIAA0157–BRCC45 triple complex (from UniProt E2AXC7 1-253)”, for which the stoichiometry N (in general, the number of molecules, sites or subunits per partner or assembly) in [2] came out at 2. As to “CfBRCC36(Ile212Asp)–KIAA0157ΔC heterodimer”, the “percent eluting as monomers of heterodimers” value in data set [3] is 70% and 36% of proteins, respectively, eluting as monomers of heterodimers. Consider “CfBRCC36(Ala205Asp + Ile212Asp)–KIAA0157ΔC heterodimer (complex)”, for which the percent eluting as super dimers in [4] came out at 15%. The substance “Cf BRCC36–KIAA0157 binary complex (from UniProt E2AXC7 1-253)” displayed a stoichiometry N in [5] of 2. “CfBRCC36(Ala205Asp)–KIAA0157ΔC heterodimer (complex)” displayed a cleavage of a K63-linked diUb fluorigenic substrate in vitro, at near saturating substrate concentrations (>10 μM diUb) (fold less active than WT) in data set [6] of 10. As to “BRCC36(E30A)-KIAA0157ΔC complex (from UniProt E2AXC7 1-253)”, the Kd in [1] came to 2.4 µM. As for “CfBRCC36(Ala205Asp)–KIAA0157ΔC heterodimer”, the “percent eluting as monomers of heterodimers” value in [3] is 70% and 36% of proteins, respectively, eluting as monomers of heterodimers. “H. Sapiens ARISC (BRCC36–Abraxas–BRCC45–MERIT40) complex (from UniProt P46736 1-316; Q6UWZ7 1-409; Q9NXR7 1-383; Q9NWV8 1-329)” had a stoichiometry N in data set [7] of 2. Take “CfBRCC36(Ala205Asp + Ile212Asp)–KIAA0157ΔC heterodimer”: the “percent eluting as a monomer of heterodimers” value in data set [3] is recorded as 85% major peak. Take “CfBRCC36(Ile212Asp)–KIAA0157ΔC heterodimer (complex)”: in data set [8], the cleavage of a K63-linked diUb fluorigenic substrate in vitro, at near saturating substrate concentrations (>10 μM diUb) (fold less active than WT) stood at 10.

The substance “CfBRCC36–KIAA0157ΔC heterodimer (complex)” had a stoichiometry N in [9] of 2. In data set [10], the Km, Michaelis-Menten kinetic analysis for cleavage of K63 diUb (Figure 6B) was determined as 4.2 µM.
